We go through one molecule from publication PMC9596371 (Nature Chemical Biology, 2022).

The target in the test is OC43 spike protein (FL-GCN4-Avi-His, 2P, biotinylated) (human coronavirus OC43, strain of …, UniProt P36334, stabilised, biotin on the Avi tag). Nature of the test: ELISA. Particulars: both partners purified.

B1: COV2-2449 IgG (antibody, V domains shown)
VH: QVQLVESGGGVVQPGRSLRLSCATSGFTFSSFALHWVRQAPGKGLEWVTVISDDGNNKYYVDSVKGRFTISRDNSKNTLFLQMNSLRVEDTAIYYCARASYNSNWSIGEYFRDWGQGTLVTVSS
VL: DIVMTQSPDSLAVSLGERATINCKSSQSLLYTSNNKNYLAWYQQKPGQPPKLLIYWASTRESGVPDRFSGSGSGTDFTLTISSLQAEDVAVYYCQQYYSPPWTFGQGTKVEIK
On to B1, for which the binding result is “binds”.
